Experiment [1] has as its target T1, rat amylin receptor (rat calcitonin receptor + rat RAMP 3) (rat, UniProt P32214 25-516; Q9JJ73 23-147).
T1 construct: whole, on cells; also called rAmylin-R; rat amylin 3(a) receptor
T1 sequence (looked up) 1: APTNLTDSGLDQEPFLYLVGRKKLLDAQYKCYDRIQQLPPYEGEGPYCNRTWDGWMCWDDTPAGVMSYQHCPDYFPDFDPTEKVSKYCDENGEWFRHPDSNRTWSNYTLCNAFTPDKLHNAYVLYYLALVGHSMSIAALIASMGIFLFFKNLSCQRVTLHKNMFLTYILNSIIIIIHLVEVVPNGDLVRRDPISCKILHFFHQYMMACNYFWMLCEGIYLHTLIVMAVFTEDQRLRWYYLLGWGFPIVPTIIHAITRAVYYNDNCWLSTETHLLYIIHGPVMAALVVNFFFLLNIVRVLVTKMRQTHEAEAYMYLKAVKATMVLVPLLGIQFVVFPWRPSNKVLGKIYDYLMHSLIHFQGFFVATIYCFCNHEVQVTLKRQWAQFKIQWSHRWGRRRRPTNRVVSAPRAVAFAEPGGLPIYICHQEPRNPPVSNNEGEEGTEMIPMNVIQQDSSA
T1 sequence (looked up) 2: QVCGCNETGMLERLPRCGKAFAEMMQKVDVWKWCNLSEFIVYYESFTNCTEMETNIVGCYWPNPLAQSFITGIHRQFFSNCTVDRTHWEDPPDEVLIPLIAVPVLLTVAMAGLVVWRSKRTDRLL
As to the kind of experiment: SPA competition with 125I-rat amylin, membranes of BHK cells with rat calcitonin receptor + rat RAMP3 (Assay VI).

The target of experiment [2] is T2, rat calcitonin receptor (rat, UniProt P32214 25-516).
T2 construct: whole, on cells; also called rCTR; rat calcitonin (a) receptor
T2 sequence (looked up): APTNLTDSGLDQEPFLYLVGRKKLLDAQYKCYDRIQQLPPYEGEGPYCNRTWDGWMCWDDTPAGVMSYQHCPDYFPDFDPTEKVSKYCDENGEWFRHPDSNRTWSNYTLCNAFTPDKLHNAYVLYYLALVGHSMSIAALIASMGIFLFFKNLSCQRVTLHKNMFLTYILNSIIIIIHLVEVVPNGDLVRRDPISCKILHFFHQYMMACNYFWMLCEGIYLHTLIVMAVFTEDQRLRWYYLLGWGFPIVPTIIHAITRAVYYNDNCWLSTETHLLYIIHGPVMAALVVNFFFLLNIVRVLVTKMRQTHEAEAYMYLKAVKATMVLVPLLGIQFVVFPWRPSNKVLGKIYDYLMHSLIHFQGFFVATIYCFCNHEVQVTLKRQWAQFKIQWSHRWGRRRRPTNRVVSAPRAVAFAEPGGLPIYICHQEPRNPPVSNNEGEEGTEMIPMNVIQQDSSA
The experiment can be described thus: ratio of binding IC50s: rat calcitonin receptor over rat amylin receptor (reference).

Experiment [3] concerns the target T3, human calcitonin receptor (human, UniProt P30988 25-474).
T3 construct: whole, on cells; also called hCTR; hCT
T3 sequence (looked up): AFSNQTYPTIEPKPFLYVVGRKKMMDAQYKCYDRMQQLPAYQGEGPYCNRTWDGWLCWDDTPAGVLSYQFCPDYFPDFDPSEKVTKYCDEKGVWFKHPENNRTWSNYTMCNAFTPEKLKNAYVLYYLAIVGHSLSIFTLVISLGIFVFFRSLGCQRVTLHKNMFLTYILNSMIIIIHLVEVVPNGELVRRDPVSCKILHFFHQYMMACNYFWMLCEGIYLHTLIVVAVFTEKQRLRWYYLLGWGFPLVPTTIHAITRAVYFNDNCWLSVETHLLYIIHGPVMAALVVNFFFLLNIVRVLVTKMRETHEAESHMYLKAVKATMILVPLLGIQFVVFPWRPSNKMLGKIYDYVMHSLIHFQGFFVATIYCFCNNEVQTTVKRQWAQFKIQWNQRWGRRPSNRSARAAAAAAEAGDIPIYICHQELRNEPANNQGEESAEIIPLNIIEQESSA
As to the kind of experiment: ratio of binding IC50s: human calcitonin receptor over human amylin receptor (reference). The essentials: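 IC₅₀ values were derived by one-site competition analysis of SPA counts. Cell membranes (35 ng/μL) with SPA beads were incubated with test compounds for 120 min at 25° C in Hepes buffer, pH 7.4, containing CaCl2, MgCl₂, OA and Tween20.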

The target in experiment [4] is T2, rat calcitonin receptor. As to the kind of experiment: SPA competition with 125I-calcitonin, membranes of BHK cells with rat calcitonin receptor (Assay VIII).

Numbered stars: 1 amine (or outer) side, 2 acyl side, 3 side chain; on linkers, the order of the positions; unused ones are H or OH. Bridge positions count the residues as written; N and C are the ends. Side chains are listed from the residue outwards. Ends that are not written are not given here. * marks the point of attachment. C20 diacid = O=C(O)CCCCCCCCCCCCCCCCCCC(=O)*; γGlu = O=C(O)[C@H](CCC(=O)[*:2])N[*:1]

The term IC50 denotes the point on the concentration scale where inhibition reaches its midpoint.

B1: N^ε1-[(4S)-4-carboxy-4-[[(4S)-4-carboxy-4-(19-carboxynonadecanoylamino)butanoyl]amino]butanoyl]-[Glu14,Arg17,Pro21,Pro27,His34]-h-amylin (peptide)
peptide: K([γGlu-γGlu-C20 diacid])CNTATCATQRLAEFLRHSSPNFGAIPSSTNVGHNTY-NH2
modifications: disulfide 2-7; N-terminus assumed
SMILES: CC[C@H](C)[C@H](NC(=O)[C@H](C)NC(=O)CNC(=O)[C@H](Cc1ccccc1)NC(=O)[C@H](CC(N)=O)NC(=O)[C@@H]1CCCN1C(=O)[C@H](CO)NC(=O)[C@H](CO)NC(=O)[C@H](Cc1c[nH]cn1)NC(=O)[C@H](CCCNC(=N)N)NC(=O)[C@H](CC(C)C)NC(=O)[C@H](Cc1ccccc1)NC(=O)[C@H](CCC(=O)O)NC(=O)[C@H](C)NC(=O)[C@H](CC(C)C)NC(=O)[C@H](CCCNC(=N)N)NC(=O)[C@H](CCC(N)=O)NC(=O)[C@@H](NC(=O)[C@H](C)NC(=O)[C@@H]1CSSC[C@H](NC(=O)[C@@H](N)CCCCNC(=O)CC[C@H](NC(=O)CC[C@H](NC(=O)CCCCCCCCCCCCCCCCCCC(=O)O)C(=O)O)C(=O)O)C(=O)N[C@@H](CC(N)=O)C(=O)N[C@@H]([C@@H](C)O)C(=O)N[C@@H](C)C(=O)N[C@@H]([C@@H](C)O)C(=O)N1)[C@@H](C)O)C(=O)N1CCC[C@H]1C(=O)N[C@@H](CO)C(=O)N[C@@H](CO)C(=O)N[C@H](C(=O)N[C@@H](CC(N)=O)C(=O)N[C@H](C(=O)NCC(=O)N[C@@H](Cc1c[nH]cn1)C(=O)N[C@@H](CC(N)=O)C(=O)N[C@H](C(=O)N[C@@H](Cc1ccc(O)cc1)C(N)=O)[C@@H](C)O)C(C)C)[C@@H](C)O
notes: synthetic analogue of human amylin; also called compound 87
As for B1, the IC50 came out at 2.07 nM in experiment [1] and 94.5 nM with rat calcitonin receptor [4]. In addition, the “Ratio rCT/rAmylin binding” value in the experiment with rat calcitonin receptor [2] amounted to 45.6. For the same molecule, the “Ratio hCT/hAmylin binding” value in experiment [3] was 35.6.

B2: N^ε21-[(4S)-4-carboxy-4-[[(4S)-4-carboxy-4-(19-carboxynonadecanoylamino)butanoyl]amino]butanoyl]-[Asp14,Arg17,Lys21,Pro27,Asp35]-h-amylin (peptide)
peptide: KCNTATCATQRLADFLRHSSK([γGlu-γGlu-C20 diacid])NFGAIPSSTNVGSDTY-NH2
modifications: disulfide 2-7; N-terminus assumed
SMILES: CC[C@H](C)[C@H](NC(=O)[C@H](C)NC(=O)CNC(=O)[C@H](Cc1ccccc1)NC(=O)[C@H](CC(N)=O)NC(=O)[C@H](CCCCNC(=O)CC[C@H](NC(=O)CC[C@H](NC(=O)CCCCCCCCCCCCCCCCCCC(=O)O)C(=O)O)C(=O)O)NC(=O)[C@H](CO)NC(=O)[C@H](CO)NC(=O)[C@H](Cc1c[nH]cn1)NC(=O)[C@H](CCCNC(=N)N)NC(=O)[C@H](CC(C)C)NC(=O)[C@H](Cc1ccccc1)NC(=O)[C@H](CC(=O)O)NC(=O)[C@H](C)NC(=O)[C@H](CC(C)C)NC(=O)[C@H](CCCNC(=N)N)NC(=O)[C@H](CCC(N)=O)NC(=O)[C@@H](NC(=O)[C@H](C)NC(=O)[C@@H]1CSSC[C@H](NC(=O)[C@@H](N)CCCCN)C(=O)N[C@@H](CC(N)=O)C(=O)N[C@@H]([C@@H](C)O)C(=O)N[C@@H](C)C(=O)N[C@@H]([C@@H](C)O)C(=O)N1)[C@@H](C)O)C(=O)N1CCC[C@H]1C(=O)N[C@@H](CO)C(=O)N[C@@H](CO)C(=O)N[C@H](C(=O)N[C@@H](CC(N)=O)C(=O)N[C@H](C(=O)NCC(=O)N[C@@H](CO)C(=O)N[C@@H](CC(=O)O)C(=O)N[C@H](C(=O)N[C@@H](Cc1ccc(O)cc1)C(N)=O)[C@@H](C)O)C(C)C)[C@@H](C)O
notes: synthetic analogue of human amylin; also called compound 59
Consider B2, for which the results for the IC50 (in experiment [1]; with rat calcitonin receptor [4]) were 0.659 nM and 18.8 nM, respectively. For the same molecule, in the experiment with rat calcitonin receptor [2], the “Ratio rCT/rAmylin binding” value came out at 28.5. The “Ratio hCT/hAmylin binding” value in experiment [3] was determined as 4.3.

The record behind these values is patent publication US20140087995A1 (published 2014).
